Assays:
[1] = molecular target: T1, soluble tissue factor (recombinant human Coagulation Factor III/soluble tissue factor; R&D Systems) (human); assay: SPR (Biacore T100), sTF on chip, two-state fit; FVIIa made in CHOX cells
T1 chain: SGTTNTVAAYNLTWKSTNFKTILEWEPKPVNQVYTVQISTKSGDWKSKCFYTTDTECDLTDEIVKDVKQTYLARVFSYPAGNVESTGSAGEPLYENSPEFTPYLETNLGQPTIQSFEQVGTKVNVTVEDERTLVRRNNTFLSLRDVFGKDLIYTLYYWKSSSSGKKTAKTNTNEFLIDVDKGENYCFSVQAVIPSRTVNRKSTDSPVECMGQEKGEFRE

[2] = molecular target: T1, soluble tissue factor (recombinant …); assay: SPR (Biacore T100), sTF on chip, two-state fit
[3] = molecular target: T1, soluble tissue factor (recombinant …); assay: SPR (Biacore T100), sTF on chip, two-state fit; FVIIa made in CHOX stable cell line clone 52-5F7
[4] = molecular target: Factor X (FX) (Homo sapiens (Human)) (UniProt P00742)
Factor X (FX) (Homo sapiens (Human)), sequence (P00742 41-488 limits assumed): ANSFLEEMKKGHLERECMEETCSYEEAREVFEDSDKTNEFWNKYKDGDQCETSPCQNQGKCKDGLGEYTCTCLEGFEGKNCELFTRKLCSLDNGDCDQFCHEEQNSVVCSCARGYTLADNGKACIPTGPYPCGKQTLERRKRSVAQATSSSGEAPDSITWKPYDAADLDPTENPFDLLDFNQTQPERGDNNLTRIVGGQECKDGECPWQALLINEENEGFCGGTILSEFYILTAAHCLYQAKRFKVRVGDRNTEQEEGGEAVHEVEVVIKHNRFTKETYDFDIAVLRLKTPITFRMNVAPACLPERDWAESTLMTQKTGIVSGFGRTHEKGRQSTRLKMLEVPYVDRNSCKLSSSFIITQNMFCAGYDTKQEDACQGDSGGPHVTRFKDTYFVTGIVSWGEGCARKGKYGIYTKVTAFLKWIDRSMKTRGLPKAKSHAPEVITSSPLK

B1: FVIIa Q286R/M298Q (enzyme)
chain: ANAFLEELRPGSLERECKEEQCSFEEAREIFKDAERTKLFWISYSDGDQCASSPCQNGGSCKDQLQSYICFCLPAFEGRNCETHKDDQLICVNENGGCEQYCSDHTGTKRSCRCHEGYSLLADGVSCTPTVEYPCGKIPILEKRNASKPQGRIVGGKVCPKGECPWQVLLLVNGAQLCGGTLINTIWVVSAAHCFDKIKNWRNLIAVLGEHDLSEHDGDEQSRRVAQVIIPSTYVPGTTNHDIALLRLHQPVVLTDHVVPLCLPERTFSERTLAFVRFSLVSGWGRLLDRGATALELQVLNVPRLMTQDCLQQSRKVGDSPNITEYMFCAGYSDGSKDSCKGDSGGPHATHYRGTWYLTGIVSWGQGCATVGHFGVYTRVSQYIEWLQKLMRSEPRPGVLLRAPFP
[1]
  Affinity Kd-WT/Kd-mut: 1.1
  Kd: 3.6 nM
[2]
  Affinity Kd-WT/Kd-mut: 1.9
  Kd: 4.1 nM
[3]
  Kd: 3.2 nM
[4]
  kcat/KM, TF-Dependent Indirect Assay: 1.85e+08 M⁻¹ s⁻¹

From patent US20090291890A1 (published 2009)
